From paper PMC9418332, “Perforin-2 clockwise hand-over-hand pre-pore to pore transition mechanism” (Nature Communications, 2022)

Molecular target: the molecule itself
Experiment: high-speed atomic force microscopy (HS-AFM); pre-pore rings on supported E. coli lipid bilayer, buffer acidified with HCl to ~pH 4.0 in the fluid cell; imaging at 200 ms temporal resolution, room temperature; pre-pore ring openings and pore arcs

B1: Ectodomain of mPFN2 (Perforin-2) (domain or fragment, mouse (printed as mPFN2), UniProt A1L314 20-652, looked up)
chain: DKPLGETGTTGFQICKNALKLPVLEVLPGGGWDNLRNVDMGRVMDLTYTNCKTTEDGQYIIPDEVYTIPQKESNLEMNSEVLESWMNYQSTTSLSINTELALFSRVNGKFSTEFQRMKTLQVKDQAVTTRVQVRNRIYTVKTTPTSELSLGFTKALMDICDQLEKNQTKMATYLAELLILNYGTHVITSVDAGAALVQEDHVRSSFLLDNQNSQNTVTASAGIAFLNIVNFKVETDYISQTSLTKDYLSNRTNSRVQSFGGVPFYPGITLETWQKGITNHLVAIDRAGLPLHFFIKPDKLPGLPGPLVKKLSKTVETAVRHYYTFNTHPGCTNVDSPNFNFQANMDDDSCDAKVTNFTFGGVYQECTELSGDVLCQNLEQKNLLTGDFSCPPGYSPVHLLSQTHEEGYSRLECKKKCTLKIFCKTVCEDVFRVAKAEFRAYWCVAAGQVPDNSGLLFGGVFTDKTINPMTNAQSCPAGYIPLNLFESLKVCVSLDYELGFKFSVPFGGFFSCIMGNPLVNSDTAKDVRAPSLKKCPGGFSQHLAVISDGCQVSYCVKAGIFTGGSLLPVRLPPYTKPPLMSQVATNTVIVTNSETARSWIKDPQTNQWKLGEPLELRRAMTVIHGDSNGMSGG
notes: Perforin-2 (PFN2, MPEG1), mouse (printed as mPFN2), ectodomain, UniProt A1L314 residues 20-652; Applied as monomers (0.043 mg/ml) and self-assembles on the support; The 1D4 tag is inferred from the resin; also called MPEG1; source: HEK293T or HEK293S cells, transient transfection; purified from the media using anti-1D4 antibody-coupled agarose resin
stoichiometry N: 16 subunits
